The text below walks through data of patent US20260131000A1 (Memorial Sloan Kettering, published 2026).

For assay [1], the target named is L1CAM endogenously expressed on MCF-7 and MDA-MB-231 cells (UniProt P32004). Briefly: flow cytometry, MCF-7 cells. In general terms: A flow cytometer gives signals particle by particle.
For assay [2] the target is unchanged. Kind of assay: flow cytometry, MDA-MB-231 cells.
The target of assay [3] is human L1CAM overexpressed on HEK293T cells (human, UniProt P32004 20-1257). Kind of assay: flow cytometry on HEK293T cells overexpressing L1CAM (panel HEK293T-L1CAM), GMFI ratio to 2nd only against log[Fab], nM. The text has this:
A total of 11 humanized 76H12 Fab variants (Fabs 2-12) were generated in addition to a chimeric 76H12 Fab (Fab 1) containing the parental murine VH and VL sequences. The chimeric Fab served as the benchmark for comparative assessment of humanized Fab variants. […] All humanized variants bound to the L1CAM overexpressing cells, with most binding comparably to the chimeric 76H12 Fab. […] Here, recombinant L1CAM-Fc fusion protein was immobilized onto anti-Human IgG Fc Capture (AHC) biosensors and binding of Fabs was measured kinetically over a 3-200 nM concentration range. Kinetic data were fitted to a 1:1 binding model to compute association (kₒₙ) and dissociation (koff) rate constants, in addition to equilibrium dissociation constants (KD) as shown in Table 59. […] From these, Fab 3 represents the preferred humanized variant given higher identity to human germline IGHV1-46 and IGKV1-39 sequences resulting from fewer human-to-murine framework back mutations.

human L1CAM overexpressed on HEK293T cells, sequence (P32004 20-1257): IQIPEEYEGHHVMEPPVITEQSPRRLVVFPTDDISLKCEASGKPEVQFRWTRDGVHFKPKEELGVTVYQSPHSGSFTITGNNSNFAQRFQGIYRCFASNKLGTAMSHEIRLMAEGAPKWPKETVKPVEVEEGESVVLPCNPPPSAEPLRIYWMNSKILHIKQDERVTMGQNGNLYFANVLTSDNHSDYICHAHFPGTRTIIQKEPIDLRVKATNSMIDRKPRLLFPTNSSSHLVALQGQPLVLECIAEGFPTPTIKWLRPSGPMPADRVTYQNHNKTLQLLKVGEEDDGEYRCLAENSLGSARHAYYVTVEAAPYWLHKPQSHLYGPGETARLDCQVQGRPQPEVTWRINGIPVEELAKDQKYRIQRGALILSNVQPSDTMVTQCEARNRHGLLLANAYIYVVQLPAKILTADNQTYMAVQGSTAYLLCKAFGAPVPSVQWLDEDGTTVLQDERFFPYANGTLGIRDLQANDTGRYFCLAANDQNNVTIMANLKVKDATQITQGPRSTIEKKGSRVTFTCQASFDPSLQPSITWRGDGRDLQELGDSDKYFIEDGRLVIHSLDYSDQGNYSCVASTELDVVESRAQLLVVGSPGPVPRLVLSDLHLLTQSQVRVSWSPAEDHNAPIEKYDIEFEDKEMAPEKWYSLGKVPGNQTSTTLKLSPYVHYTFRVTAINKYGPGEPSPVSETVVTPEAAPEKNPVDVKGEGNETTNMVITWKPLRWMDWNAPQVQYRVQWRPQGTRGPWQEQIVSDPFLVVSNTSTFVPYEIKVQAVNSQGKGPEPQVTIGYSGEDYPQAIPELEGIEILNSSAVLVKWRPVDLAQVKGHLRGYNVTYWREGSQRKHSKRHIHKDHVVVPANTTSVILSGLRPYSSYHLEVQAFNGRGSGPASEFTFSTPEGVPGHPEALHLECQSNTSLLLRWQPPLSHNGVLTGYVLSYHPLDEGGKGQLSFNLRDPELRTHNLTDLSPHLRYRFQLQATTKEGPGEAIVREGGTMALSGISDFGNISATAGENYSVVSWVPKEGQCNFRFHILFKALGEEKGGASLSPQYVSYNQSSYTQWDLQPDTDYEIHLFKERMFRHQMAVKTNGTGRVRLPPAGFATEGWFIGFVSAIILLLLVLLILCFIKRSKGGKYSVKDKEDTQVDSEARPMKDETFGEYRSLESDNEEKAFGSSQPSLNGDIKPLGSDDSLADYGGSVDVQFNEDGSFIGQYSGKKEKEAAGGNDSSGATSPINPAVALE

B1: 13G04 (antibody, V domains shown)
VH: QVQLVQSGAEVKKPGASVKVSCKASGYTFIGYYLHWVRQAPGQGLEWMGWINPNSGGTNSAQKFQGRVTMTRDTSISTTYMDLSRLRSDDTAVYYCARGGLERRDAFDIWGQGTLVTVSS
VL: DIQMTQSPSTLSASVGDRVTITCRASQSISNWLAWYQQKPGKAPNLLIYKASSLESGVPSRFSGSGSGTEFTLTISSLQPDDFATYYCQQYDTYRTFGQGTKVEIK
One may read the EC50 as the concentration that produces a half-maximal response. Low values mean a more potent agent, high ones a less potent agent. In the case of B1, the EC50 in assay [1] is 4.8 nM; in assay [2] it was 6.7 nM.

B2: 143G03 (antibody, V domains shown)
VH: QVQLRQSGAELVRPGTSVKMSCKASGYTFTNYYIHWVKQRPGQGLEWIGKIGPGSGSPYYNGMFKDKATLTVDTSSSTAYMQLSSLTSEDSAVYFCARWLLPFDYWGQGTTLTVSS
VL: QIVLSQSPGILSASPGEKVTMTCRASSSVNYMHWYQQKSGSSPKPWIFATSILASGVPPRFSGSGSGTSYSLTISSVEAEDTATYYCQQFSSDPLTFGAGTKLELK
Turning to B2, the EC50 in assay [1] came to 0.35 nM; in assay [2], 0.9 nM.

B3: 14A10 (antibody, V domains shown)
VH: EVQMVESGGGLVQPGGSLRLSCAAPGFIFSSYNMNWVRQAPGKGLEWVSYISSSSSTTYYADSVKGRFTISRDNAKNSLYLQMNSLRDEDTAVYYCASLYSGYDYYYYYGMDVWGQGTTVTVSS
VL: DIVMTQTPLSSPVSLGQPASISCRSSQSLVHSDGNTYLSWLQQRPGQPPRVLIYKISKRFSGVPDRFSGSGAGTDFTLKISRVEAEDVGVYYCMQATQFPFTFGPGTKVDIK
In the case of B3, the EC50 in assay [1] amounted to 5.3 nM; in assay [2], 8.9 nM.

B4: 13F04 (antibody, V domains shown)
VH: QVQLQQPGAELVKPGASVKLSCKASGYIFISYWMHWVKQRPGQGLEWIGEINPRNGRTNYNEKFKSKATLTVDKSSSTAYMQLTSLTSEDSAVYYCARGGDYGGSFDYWGQGTTLTVSS
VL: DIVLTQSPASLAVSLGQRATISCRASESVDSYGNSFMHWYQQKPGQPPKLLIYRASNLESGIPARFSGSGSRTDFTLTVNPVEADDVATYYCQQSNEDPWTFGGGTKLEIK
Take B4: the EC50 in assay [1] is 1.2 nM; in assay [2], 1.7 nM.

B5: Fab Construct 1 (chimeric 76H12 Fab, parental mouse 76H12 V-regions) (Fab, V domains shown)
VH: QVQLQQPGSDLVRPGTSVKLSCKASGYTFTSYWMHWVKQRPGQGLEWIGNVYPGSGSTKYDEKFKTKATLTVDTSSNTAYMELSSLTSEDSAVYYCTRPGNYEGFAYWGQGTLVTVSA
VL: NIVLTQSPASLAVSLGQRATISCRASESVDSYGSSFMHWYQQKPGQPPKLLIYLASNLESGVPARFSGSGSRTDFTLTIDPVEADDAATYYCQQNNEDPWTFGGGTKLEIK
notes: domain: CH1; also called Fab 1; chimeric Fab; not shown: constant region of human kappa light chain
Usually EC50 (read off the curve) stands for the concentration needed to bring the measured effect to its halfway point. As for B5, the “EC50 (read off the curve)” value in assay [3] was roughly 70 nM.

B6: Fab Construct 2 (humanized 76H12 Fab) (Fab, V domains shown)
VH: QVQLVQSGAEVKKPGASVKVSCKASGYTFTSYWMHWVRQAPGQGLEWMGNVYPGSGSTKYAQKFQGRVTMTRDTSTSTVYMELSSLRSEDTAVYYCARPGNYEGFAYWGQGTLVTVSS
VL: NIQLTQSPSSLSASVGDRVTITCRASESVDSYGSSFMHWYQQKPGKPPKLLIYLASNLESGVPSRFSGSGSGTDFTLTISSLQPEDFATYYCQQNNEDPWTFGQGTKLEIK
notes: domain: CH1; also called Fab 2; h76H12_Hv0/h76H12_Lv3; not shown: constant region of human kappa light chain
In the case of B6, the “EC50 (read off the curve)” value in assay [3] is roughly 200 nM.
